Measured values as given in PMC5037822, “Molecular and Biochemical Analysis of Two Rice Flavonoid 3’-Hydroxylase to Evaluate Their Roles in Flavonoid Biosynthesis in Rice Grain” (International Journal of Molecular Sciences, 2016).

T1: CYP75B4-HN (Oryza sativa, UniProt Q8LM92, H351Q)
T1 construct: full length, 535 residues, natural allele with Gln351, C-terminal V5 and 6xHis tags, yeast WAT11 cells with Arabidopsis reductase ATR1
T1 sequence (Q8LM92 1-535 H351Q): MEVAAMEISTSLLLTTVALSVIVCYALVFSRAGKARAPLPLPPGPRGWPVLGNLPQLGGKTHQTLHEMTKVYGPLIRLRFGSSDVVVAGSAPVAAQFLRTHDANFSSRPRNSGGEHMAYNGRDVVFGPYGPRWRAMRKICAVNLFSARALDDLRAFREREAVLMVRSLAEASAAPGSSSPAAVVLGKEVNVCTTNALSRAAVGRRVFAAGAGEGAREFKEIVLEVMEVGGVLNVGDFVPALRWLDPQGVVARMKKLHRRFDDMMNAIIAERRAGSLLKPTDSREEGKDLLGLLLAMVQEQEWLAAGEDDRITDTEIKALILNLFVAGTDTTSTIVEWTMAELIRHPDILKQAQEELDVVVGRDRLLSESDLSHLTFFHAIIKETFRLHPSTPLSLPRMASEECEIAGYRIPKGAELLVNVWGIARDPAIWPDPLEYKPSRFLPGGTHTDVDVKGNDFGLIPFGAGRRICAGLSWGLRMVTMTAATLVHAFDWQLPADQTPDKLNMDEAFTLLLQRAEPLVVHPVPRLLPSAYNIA

T2: CYP75B4-JJJ (Oryza sativa, UniProt Q8LM92, E7V)
T2 construct: full length, 535 residues, natural allele with Val7, C-terminal V5 and 6xHis tags, yeast WAT11 cells with Arabidopsis reductase ATR1
T2 sequence (Q8LM92 1-535 E7V): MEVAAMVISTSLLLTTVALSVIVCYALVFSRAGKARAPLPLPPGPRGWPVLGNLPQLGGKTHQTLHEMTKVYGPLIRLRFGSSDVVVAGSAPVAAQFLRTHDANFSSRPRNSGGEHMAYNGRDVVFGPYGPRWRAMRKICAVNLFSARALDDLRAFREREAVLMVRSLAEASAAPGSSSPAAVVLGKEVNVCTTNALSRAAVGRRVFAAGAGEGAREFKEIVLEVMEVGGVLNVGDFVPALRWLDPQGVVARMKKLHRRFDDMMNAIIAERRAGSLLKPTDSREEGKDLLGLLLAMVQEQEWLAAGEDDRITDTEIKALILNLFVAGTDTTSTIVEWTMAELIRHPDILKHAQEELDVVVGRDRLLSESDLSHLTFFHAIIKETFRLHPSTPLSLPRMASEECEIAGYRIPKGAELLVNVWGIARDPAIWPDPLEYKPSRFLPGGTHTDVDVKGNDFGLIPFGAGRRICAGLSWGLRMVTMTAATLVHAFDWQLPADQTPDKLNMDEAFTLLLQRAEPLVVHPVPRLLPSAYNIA


Columns and labels:
[1] = target: T1, CYP75B4-HN; experiment: substrate feeding of induced yeast, HPLC of […]'-hydroxylated product; type: cell-based; settings: 50 μM substrate, whole yeast WAT11 culture, 28 °C, 7.5 h
[2] = target: T2, CYP75B4-JJJ; experiment: as above; type: cell-based; settings: 50 μM substrate, whole yeast WAT11 culture, 28 °C, 7.5 h
[3] = substrate: O=c1cc(-c2ccc(O)cc2)oc2cc(O)cc(O)c12; experiment: cells, lysate or membranes; settings: 1 mM NADPH, 100 mM Tris pH 7.5, 30 °C
[4] = substrate: O=c1c(O)c(-c2ccc(O)cc2)oc2cc(O)cc(O)c12; experiment: cells, lysate or membranes; type: biochemical, Oryza sativa; settings: 1 mM NADPH, 100 mM Tris pH 7.5, 30 °C
[5] = substrate: O=C1CC(c2ccc(O)cc2)Oc2cc(O)cc(O)c21; experiment: cells, lysate or membranes; settings: 1 mM NADPH, 100 mM Tris pH 7.5, 30 °C, racemic substrate
[6] = substrate: O=C1c2c(O)cc(O)cc2OC(c2ccc(O)cc2)C1O; experiment: cells, lysate or membranes; type: biochemical, Oryza sativa; settings: 1 mM NADPH, 100 mM Tris pH 7.5, 30 °C, racemic substrate

Molecule | substrate feeding of induced yeast, HPLC of 3'-hydroxylated product [1] | substrate feeding of induced yeast, HPLC of 3'-hydroxylated product [2] | Km [3] | Vmax [3] | Km [4] | Vmax [4] | Km [5] | Vmax [5] | Km [6] | Vmax [6]
O=c1cc(-c2ccc(O)cc2)oc2cc(O)cc(O)c12 [API, apigenin] | CYP75B4-IM, CYP75B4-HN, and CYP75B4-JJJ metabolized naringenin, apigenin, and kaempferol | CYP75B4-IM, CYP75B4-HN, and CYP75B4-JJJ metabolized naringenin, apigenin, and kaempferol | – | – | – | – | – | – | – | –
O=c1c(O)c(-c2ccc(O)cc2)oc2cc(O)cc(O)c12 [KAM, kaempferol] | CYP75B4-IM, CYP75B4-HN, and CYP75B4-JJJ metabolized naringenin, apigenin, and kaempferol | CYP75B4-IM, CYP75B4-HN, and CYP75B4-JJJ metabolized naringenin, apigenin, and kaempferol | – | – | – | – | – | – | – | –
CYP75B4-IM (Oryza sativa Japonica Group) (protein, full length, 535 residues, C-terminal V5 and 6xHis tags (pYES-DEST52), yeast WAT11 microsomes with Arabidopsis reductase ATR1) MEVAAMEISTSLLLTTVALSVIVCYALVFSRAGKARAPLPLPPGPRGWPVLGNLPQLGGKTHQTLHEMTKVYGPLIRLRFGSSDVVVAGSAPVAAQFLRTHDANFSSRPRNSGGEHMAYNGRDVVFGPYGPRWRAMRKICAVNLFSARALDDLRAFREREAVLMVRSLAEASAAPGSSSPAAVVLGKEVNVCTTNALSRAAVGRRVFAAGAGEGAREFKEIVLEVMEVGGVLNVGDFVPALRWLDPQGVVARMKKLHRRFDDMMNAIIAERRAGSLLKPTDSREEGKDLLGLLLAMVQEQEWLAAGEDDRITDTEIKALILNLFVAGTDTTSTIVEWTMAELIRHPDILKHAQEELDVVVGRDRLLSESDLSHLTFFHAIIKETFRLHPSTPLSLPRMASEECEIAGYRIPKGAELLVNVWGIARDPAIWPDPLEYKPSRFLPGGTHTDVDVKGNDFGLIPFGAGRRICAGLSWGLRMVTMTAATLVHAFDWQLPADQTPDKLNMDEAFTLLLQRAEPLVVHPVPRLLPSAYNIA | – | – | 0.240 ± 0.042 µM | 0.008 µM/min/mg | 2.948 ± 0.330 µM | 0.007 µM/min/mg | – | – | – | –
CYP75B3-IM (CYP75B3-JJJ) (Oryza sativa Japonica Group) (protein, full length, 526 residues, C-terminal V5 and 6xHis tags (pYES-DEST52), yeast WAT11 microsomes with Arabidopsis reductase ATR1) MDVVPLPLLLGSLAVSAAVWYLVYFLRGGSGGDAARKRRPLPPGPRGWPVLGNLPQLGDKPHHTMCALARQYGPLFRLRFGCAEVVVAASAPVAAQFLRGHDANFSNRPPNSGAEHVAYNYQDLVFAPYGARWRALRKLCALHLFSAKALDDLRAVREGEVALMVRNLARQQAASVALGQEANVCATNTLARATIGHRVFAVDGGEGAREFKEMVVELMQLAGVFNVGDFVPALRWLDPQGVVAKMKRLHRRYDNMMNGFINERKAGAQPDGVAAGEHGNDLLSVLLARMQEEQKLDGDGEKITETDIKALLLNLFTAGTDTTSSTVEWALAELIRHPDVLKEAQHELDTVVGRGRLVSESDLPRLPYLTAVIKETFRLHPSTPLSLPREAAEECEVDGYRIPKGATLLVNVWAIARDPTQWPDPLQYQPSRFLPGRMHADVDVKGADFGLIPFGAGRRICAGLSWGLRMVTLMTATLVHGFDWTLANGATPDKLNMEEAYGLTLQRAVPLMVQPVPRLLPSAYGV | – | – | – | – | 0.110 ± 0.008 µM | 0.24 µM/min/mg | 0.286 ± 0.015 µM | 0.214 µM/min/mg | 2.494 ± 0.350 µM | 0.43 µM/min/mg
CYP75B3-HN (Oryza sativa Japonica Group; R27H) (protein, full length, 526 residues, natural allele with His27, C-terminal V5 and 6xHis tags, yeast WAT11 microsomes with Arabidopsis reductase ATR1) MDVVPLPLLLGSLAVSAAVWYLVYFLHGGSGGDAARKRRPLPPGPRGWPVLGNLPQLGDKPHHTMCALARQYGPLFRLRFGCAEVVVAASAPVAAQFLRGHDANFSNRPPNSGAEHVAYNYQDLVFAPYGARWRALRKLCALHLFSAKALDDLRAVREGEVALMVRNLARQQAASVALGQEANVCATNTLARATIGHRVFAVDGGEGAREFKEMVVELMQLAGVFNVGDFVPALRWLDPQGVVAKMKRLHRRYDNMMNGFINERKAGAQPDGVAAGEHGNDLLSVLLARMQEEQKLDGDGEKITETDIKALLLNLFTAGTDTTSSTVEWALAELIRHPDVLKEAQHELDTVVGRGRLVSESDLPRLPYLTAVIKETFRLHPSTPLSLPREAAEECEVDGYRIPKGATLLVNVWAIARDPTQWPDPLQYQPSRFLPGRMHADVDVKGADFGLIPFGAGRRICAGLSWGLRMVTLMTATLVHGFDWTLANGATPDKLNMEEAYGLTLQRAVPLMVQPVPRLLPSAYGV | – | – | – | – | – | – | 0.108 ± 0.009 µM | 0.193 µM/min/mg | 1.034 ± 0.107 µM | 0.281 µM/min/mg
